This is an account of results in paper PMC3619129.

The target in this experiment is F-actin (human (endogenous in T cells)) (UniProt P60709).

With “T567D ezrin-EGFP (from UniProt P15311 1-586) (natural protein)”, the mobile fraction (MF) of the EGFP-tagged ezrin by FRAP in human T cells, no pretreatment, with SDF-1 came to 0.18; the mobile fraction (MF) of the EGFP-tagged ezrin by FRAP in human T cells, no pretreatment, without SDF-1 was determined as 0.25; the mobile fraction (MF) of the EGFP-tagged ezrin by FRAP in human T cells, pretreated with latrunculin A (1 μM, 30 min), with SDF-1 was 0.81; the mobile fraction (MF) of the EGFP-tagged ezrin by FRAP in human T cells, pretreated with latrunculin A (1 μM, 30 min), without SDF-1 came out at 0.72.
For “wild type (WT) ezrin-EGFP (from UniProt P15311 1-586) (natural protein)”, in that order: 0.64, 0.74, 0.79 and 0.81.
